Measured values: paper PMC8760265

Molecular target: CDK9 (UniProt P50750)
Assay: co-IP with FLAG or HA antibody, immunoblot
Settings: reference: HA-TRIM28 wild type; sites S824

TRIM28 (from UniProt Q13263) HA-TRIM28-S824A
binding against the reference: weaker
